Laboratory results reported in paper PMC6832557, “An Enzyme- and Label-Free Fluorescence Aptasensor for Detection of Thrombin Based on Graphene Oxide and G-Quadruplex”.

Molecular target: thrombin (bovine (plasma), UniProt P00735;P00735 318-366;367-625)
Experiment: graphene oxide displacement fluorescence assay (NMM/G-quadruplex readout); graphene oxide, NMM; not given in the material (S incubated with GO for 30 min; NMM ex/em 399/610 nm)
Details: protein: commercial; copies: 1;1; label: none (label-free; NMM as G4 reporter); G-quadruplex (Se part)

AGTCCGTGGTAGGGCAGGTTGGGGTGACTGGGTAGGGCGGGTTGGG (structured_DNA) [S (thrombin aptamer Sa + G-quadruplex part Se)]: binds.
